Patent publication US20260022396A1, “GENETIC CIRCUITS” (FONDAZIONE TELETHON ETS, priority 2022, published 2026)

Tests used:
Assay type in all cases: cell-based, human
[1] = test system: Firefly Luciferase driven by CMV/2B promoter in HEK293T cells; assay: CMV/2B promoter repression by VPR-dCas9-N8 and gRNA_B, Luc assay (Example 12); details: VPR-dCas9-N8 with gRNA_B vs scramble gRNA_AB
Protocol: Luciferase assay. The cells were collected 48 hours after transfection and lysed with 25 μL of 5×Passive Lysis Buffer ([…]) diluted in water. Firefly Luciferase and Renilla Luciferase expression were measured using the Dual Luciferase Assay (Promega) on a Glomax Explorer plate reader (Promega). Firefly Luciferase Arbitrary Units (fLuc [A.U.]) were calculated by normalizing each sample's Firefly Luciferase activity to the constitutive Renilla activity detected in the same sample. Relative fLuc [A.U.] values have been calculated by dividing each sample's Firefly Luciferase Arbitrary Units by the Firefly Luciferase Arbitrary Units of the sample with no Doxycycline induction, in the case of Doxycycline dose-response curves. In the case of Shield1 treatment, Relative fLuc [A.U.] values have been obtained by dividing each sample's Firefly Luciferase Arbitrary Units by the Firefly Luciferase Arbitrary Units of the sample treated with the maximum dose of Shield1 used, 1000 nM. Regarding experiments comprising Gaussia Luciferase and RedFireFly Luciferase, cells expressing those luciferases were harvested 48 h after transfection. Cells were disrupted with 100 μL/well of 1×Cell Lysis buffer and shaken for 15 min. Luciferase activity was measured using Pierce™ Gaussia-Firefly Luciferase Dual Assay Kit (ThermoFisher Scientific) according to the manufacturer's instructions. […]

[2] = test system: mCherry expression in HEK293T cells; assay: pCMV/TO repression by rtTA-VPR, mCherry positive cells by flow cytometry (Example 1); details: presence of doxycycline (1000 ng/ml), rtTA-VPR co-transfected
Protocol: Flow Cytometry. Cells were collected 48 hours after transfection, washed and resuspended with PBS (Euroclone). Flow Cytometry analysis were carried out using an Accuri C6 (BD Biosciences), analyzing 10000 cells for each sample. A 488-nm laser with a 670 nm LP filter were used to excite and detect mCherry fluorescence.
HEK293T cells were transfected with a plasmid encoding the pCMV/TO promoter driving the expression of the fluorescent protein mCherry, and with a plasmid encoding the rtTA-VPR transcription factor driven by the strong constitutive pCMV promoter. A condition treated in the same way but without rtTA-VPR transfection was used as a negative control to account for any doxycycline treatment bias on mCherry expression. The percentage of mCherry positive cells was quantified through flow cytometry analysis in the absence and presence (1000 ng/ml) of doxycycline. The results of this experiment are shown in FIG. 3, where it can be appreciated that pCMV/TO efficiently represses the expression of the mCherry almost 25 times at the transcriptional level in the presence of doxycycline. pCMV/TO is efficiently repressed by the rtTA-VPR in the presence of doxycycline. Percentual mean values of at least three biological replicates are shown. Error bars indicate standard error.

[3] = test system: Gaussia luciferase transcript harboring a Direct Repeat in its 3′UTR, HEK293T cells; assay: CasRx repression of Gaussia luciferase reporter with or without Direct Repeat (Example 2)
Protocol: Luciferase assay. The cells were collected 48 hours after transfection and lysed with 25 μL of 5×Passive Lysis Buffer ([…]) diluted in water. Firefly Luciferase and Renilla Luciferase expression were measured using the Dual Luciferase Assay (Promega) on a Glomax Explorer plate reader (Promega). Firefly Luciferase Arbitrary Units (fLuc [A.U.]) were calculated by normalizing each sample's Firefly Luciferase activity to the constitutive Renilla activity detected in the same sample. Relative fLuc [A.U.] values have been calculated by dividing each sample's Firefly Luciferase Arbitrary Units by the Firefly Luciferase Arbitrary Units of the sample with no Doxycycline induction, in the case of Doxycycline dose-response curves. […] Luciferase activity was measured using Pierce™ Gaussia-Firefly Luciferase Dual Assay Kit (ThermoFisher Scientific) according to the manufacturer's instructions.
The findings of Example 1 were further confirmed by transfecting HEK293T cells with an increasing molar ratio of a plasmid encoding a Gaussia luciferase reporter gene, with or without Direct Repeats in its 3′UTR and a plasmid encoding the CasRx endoribonuclease. […] At least, three biological replicates were analyzed for each condition. Relative gLuc A.U. is calculated as the ratio between the gLuc A.U. values obtained transfecting the CasRx against the one which wasn't; this last corresponds to 1 gLuc A.U.

[4] = test system: Gaussia Luciferase (gLuc) transcripts in HEK293 cells; assay: Mutual inhibition CasRx / gLuc transcripts with no, one or four DR (Example 13)
Protocol: In order to confirm the mechanism of inhibition mediated by the output species “Z” on the repressor species “Y” in genetic circuits according to preferred embodiments of the invention, HEK293 cells were co-transfected with CasRx endoribonuclease (species Y) and Gaussia Luciferase (gLuc) transcripts, the latter bearing in the 3′UTR either no Direct Repeat (DR), one DR, or four tandem DR motifs (4×DRs). The hypothesis tested was that upon CasRx binding, only one DR motifs would effectively contribute to transcript cleavage and subsequent degradation. Therefore, in transcripts bearing multiple DR motifs, the remaining DR motifs, not contributing to transcript cleavage, would act as decoys, sequestering active CasRx from the unbound pool. As a result, the CasRx repression efficacy on gLuc expression should decrease.
The luciferase emission of each sample was measured to quantify the expression of the gLuc at increasing amounts of co-transfected plasmid encoding the CasRx. […] (FIG. 25). Increasing the amount of DR copies in the 3′UTR thus enhances the “sponge” effect, inhibiting the cleavage efficacy of CasRx.

B1: CMV/2B: CMV promoter with gRNA_B binding sites downstream of the TATA box, repressed by VPR-dCas9-N8, SEQ ID NO: 48 (nucleic acid)
DNA: CGTTACATAACTTACGGTAAATGGCCCGCCTGGCTGACCGCCCAACGACCCCCGCCCATTGACGTCAATAATGACGTATGTTCCCATAGTAACGCCAATAGGGACTTTCCATTGACGTCAATGGGTGGAGTATTTACGGTAAACTGCCCACTTGGCAGTACATCAAGTGTATCATATGCCAAGTACGCCCCCTATTGACGTCAATGACGGTAAATGGCCCGCCTGGCATTATGCCCAGTACATGACCTTATGGGACTTTCCTACTTGGCAGTACATCTACGTATTAGTCATCGCTATTACCATGGTGATGCGGTTTTGGCAGTACATCAATGGGCGTGGATAGCGGTTTGACTCACGGGGATTTCCAAGTCTCCACCCCATTGACGTCAATGGGAGTTTGTTTTGGCACCAAAATCAACGGGACTTTCCAAAATGTCGTAACAACTCCGCCCCATTGACGCAAATGGGCGGTAGGCGTGTACGGTGGGAGGTCTATATAAGCAGAGCTGCCGTCTTCCGTTTCCACATCTTCACGGATACCAAGGTGGCACCGGTTTGATTGCACAGCCCGTCTTCCGTTTCCACATCTTCACGG
percentage of repression of the CMV/2B [1]: around 60%

B2: pCMV/TO: modified CMV promoter bearing two Tetracycline Operon (TO) sequences, SEQ ID NO: 8 (nucleic acid)
DNA: CGTTACATAACTTACGGTAAATGGCCCGCCTGGCTGACCGCCCAACGACCCCCGCCCATTGACGTCAATAATGACGTATGTTCCCATAGTAACGCCAATAGGGACTTTCCATTGACGTCAATGGGTGGAGTATTTACGGTAAACTGCCCACTTGGCAGTACATCAAGTGTATCATATGCCAAGTACGCCCCCTATTGACGTCAATGACGGTAAATGGCCCGCCTGGCATTATGCCCAGTACATGACCTTATGGGACTTTCCTACTTGGCAGTACATCTACGTATTAGTCATCGCTATTACCATGGTGATGCGGTTTTGGCAGTACATCAATGGGCGTGGATAGCGGTTTGACTCACGGGGATTTCCAAGTCTCCACCCCATTGACGTCAATGGGAGTTTGTTTTGGCACCAAAATCAACGGGACTTTCCAAAATGTCGTAACAACTCCGCCCCATTGACGCAAATGGGCGGTAGGCGTGTACGGTGGGAGGTCTATATAAGCAGAGCTCTCCCTATCAGTGATAGAGATCTCCCTATCAGTGATAGAGA
repression of mCherry expression [2]: ~25 times

B3: CasRx: CRISPR-Cas RNase derived from Ruminococcus flavefaciens, SEQ ID NO: 2 (protein)
chain: IEKKKSFAKGMGVKSTLVSGSKVYMTTFAEGSDARLEKIVEGDSIRSVNEGEAFSAEMADKNAGYKIGNAKFSHPKGYAVVANNPLYTGPVQQDMLGLKETLEKRYFGESADGNDNICIQVIHNILDIEKILAEYITNAAYAVNNISGLDKDIIGFGKFSTVYTYDEFKDPEHHRAAFNNNDKLINAIKAQYDEFDNFLDNPRLGYFGQAFFSKEGRNYIINYGNECYDILALLSGLRHWVVHNNEEESRISRTWLYNLDKNLDNEYISTLNYLYDRITNELTNSFSKNSAANVNYIAETLGINPAEFAEQYFRFSIMKEQKNLGFNITKLREVMLDRKDMSEIRKNHKVFDSIRTKVYTMMDFVIYRYYIEEDAKVAAANKSLPDNEKSLSEKDIFVINLRGSFNDDQKDALYYDEANRIWRKLENIMHNIKEFRGNKTREYKKKDAPRLPRILPAGRDVSAFSKLMYALTMFLDGKEINDLLTTLINKFDNIQSFLKVMPLIGVNAKFVEEYAFFKDSAKIADELRLIKSFARMGEPIADARRAMYIDAIRILGTNLSYDELKALADTFSLDENGNKLKKGKHGMRNFIINNVISNKRFHYLIRYGDPAHLHEIAKNEAVVKFVLGRIADIQKKQGQNGKNQIDRYYETCIGKDKGKSVSEKVDALTKIITGMNYDQFDKKRSVIEDTGRENAEREKFKKIISLYLTVIYHILKNIVNINARYVIGFHCVERDAQLYKEKGYDINLKKLEEKGFSSVTKLCAGIDETAPDKRKDVEKEMAERAKESIDSLESANPKLYANYIKYSDEKKAEEFTRQINREKAKTALNAYLRNTKWNVIIREDLLRIDNKTCTLFRNKAVHLEVARYVHAYINDIAEVNSYFQLYHYIMQRIIMNERYEKSSGKVSEYFDAVNDEKKYNDRLLKLLCVPFGYCIPRFKNLSIEALFDRNEAAKFDKEKKKVSGNS
post-transcriptional inhibition of luciferase expression ([3]; 10 times molar excess of CasRx): ~200 folds | expression of Gaussia luciferase with DR in 3′UTR ([3]; equimolar amount of plasmid encoding CasRx, relative to no CasRx): 5% | decrease of gLuc expression ([4]; transcript having one DR, increasing amount of co-transfected CasRx): ~2 log | luciferase values ([4]; transcript with 4×DRs, presence of CasRx): higher luciferase values in the presence of CasRx compared to a single DR
